Key:
[1] = target: T1, IL-23 (human, p19/p40 heterodimer) (Homo sapiens, UniProt Q9NPF7;P29460 SEQ:20-189,SEQ:23-328); experiment: filter; no binding detectable; conditions: tags: R&D Systems, carrier free; label: 5'-32P
From the text: (§1) Following the dRmY selection process for aptamers binding to IL-23 (described in Example 1C above) and determination of the oligonucleotide sequences, the sequences were systematically minimized to obtain shorter oligonucleotide sequences that retain the binding characteristics. On the basis of the IL-23 binding analysis described in Example 1A above and the cell based assay data described in Example 3 below, ARC489 (SEQ ID NO 91) (74mer) was chosen for further characterization. 3 minimized constructs based on clone ARC489 (SEQ ID NO 91) were designed and generated. […] Table 23 includes the binding data for the dRmY minimized aptamers.

[2] = target: T1, IL-23 (human, p19/p40 heterodimer); experiment: cell_activity; TransAM STAT3; conditions: tags: R&D Systems, carrier free
[3] = target: T1, IL-23 (human, p19/p40 heterodimer); experiment: filter; 0.1 mg/mL tRNA; conditions: tags: R&D Systems, carrier free
Method: Monitoring Progress of rRfY Selection. Dot blot binding assays were performed throughout the selections to monitor the protein binding affinity of the pools. Trace ³²P-labeled RNA was combined with a dilution series of h-IL-23 and incubated at room temperature for 30 minutes in 1×SHMCK (20 mM Hepes, 120 mM NaCl, 5 mM KCl, 1 mM MgCl₂, 1 mM CaCl₂, pH 7.4) plus 0.1 mg/mL tRNA for a final volume of 20 μL. The binding reactions were analyzed by nitrocellulose filtration using a Minifold I dot-blot, 96-well vacuum filtration manifold (Schleicher & Schuell, Keene, N.H.). A three-layer filtration medium was used, consisting (from top to bottom) of Protran nitrocellulose (Schleicher & Schuell), Hybond-P nylon (Amersham Biosciences) and GB002 gel blot paper (Schleicher & Schuell). RNA that is bound to protein is captured on the nitrocellulose filter, whereas the non-protein bound RNA is captured on the nylon filter. The gel blot paper was included simply as a supporting medium for the other filters. Following filtration, the filter layers were separated, dried and exposed on a phosphor screen (Amersham Biosciences, Piscataway, N.J.) and quantified using a Storm 860 Phosphorimager® blot imaging system (Amersham Biosciences).

[4] = target: T2, IL-23 (mouse, p19/p40 heterodimer) (Mus musculus, UniProt Q9EQ14;P43432 SEQ:22-196,SEQ:23-335); experiment: filter; 1X PBS, 0.1 mg/mL BSA, 30 min RT; conditions: tags: isolated in-house; label: 32P
T2 sequence 1: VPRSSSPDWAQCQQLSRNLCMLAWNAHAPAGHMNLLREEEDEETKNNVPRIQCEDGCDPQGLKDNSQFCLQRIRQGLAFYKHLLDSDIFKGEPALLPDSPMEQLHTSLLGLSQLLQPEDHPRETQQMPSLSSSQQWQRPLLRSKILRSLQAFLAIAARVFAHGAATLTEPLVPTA
T2 sequence 2: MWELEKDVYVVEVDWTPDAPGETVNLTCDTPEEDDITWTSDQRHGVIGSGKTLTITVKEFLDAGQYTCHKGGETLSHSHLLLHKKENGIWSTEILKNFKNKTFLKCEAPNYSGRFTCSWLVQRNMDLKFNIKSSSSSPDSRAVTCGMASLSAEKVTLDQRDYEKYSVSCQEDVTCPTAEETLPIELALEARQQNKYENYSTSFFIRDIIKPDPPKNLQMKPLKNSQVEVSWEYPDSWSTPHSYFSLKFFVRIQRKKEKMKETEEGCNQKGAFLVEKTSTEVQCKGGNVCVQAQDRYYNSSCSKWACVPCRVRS
From the text: (§2) Based on visual inspection of the parent clone sequences of the mouse IL-23 rRfY aptamers described in Example 1E, and predicted RNA structures using an RNA folding program (RNAstructure), minimized constructs were designed for each of the seven binding mIL-23 clones. PCR templates for the minimized construct oligos were ordered from Integrated DNA Technologies (Coraville, Iowa). Constructs were PCR amplified, transcribed, gel purified, and tested for binding to mIL-23 using the dot blot binding assay previously described. Trace ³²P-labeled RNA was combined with mIL-23 and incubated at room temperature for 30 min in 1×PBS plus 0.1 mg/mL BSA for a final volume of 30 μL. The reaction was added to a dot blot apparatus (Schleicher and Schuell Minifold-1 Dot Blot, Acrylic). Binding curves were generated as described in previous sections. Table 33 summarizes the protein binding characterization for each rRfY minimized construct that had significant binding to mIL-23.

[5] = target: T1, IL-23 (human, p19/p40 heterodimer); experiment: filter; no binding; used as negative control; conditions: tags: R&D Systems, carrier free; label: 5'-32P
From the text: (§3) The fraction aptamer bound vs. [IL-23] was used to calculate the KD by fitting the following equation to the data: Fraction aptamer bound=amplitude*([IL-23]/(KD+[IL-23]))+background binding.
Table 25 below summarizes the minimized sequences and the parent clone from which they were derived, and Table 26 summarizes the binding characterization from direct binding assays (+/−tRNA) and competition binding assays for the minimized constructs tested.

[6] = target: T1, IL-23 (human, p19/p40 heterodimer); experiment: competition; 1X PBS, 0.1 mg/mL BSA; direct binding Kd 40 nM with tRNA; conditions: tags: R&D Systems, carrier free; label: 5'-32P; G4 (predicted)
Method: as §3
(§4) Several of the minimized constructs from the dRmY Selection 2 were also assayed in a competition format in which cold aptamer was titrated and competed away trace ³²P ATP labeled aptamer In the competition assay, the [IL-23] was held constant, the [trace labeled aptamer] was held constant, and the [unlabeled aptamer] was varied. The KD was calculated by fitting the following equation to the data: Fraction aptamer bound=amplitude*([aptamer]/(KD+[aptamer]))+background binding.

[7] = target: T1, IL-23 (human, p19/p40 heterodimer); experiment: filter; 1X PBS, tRNA, ssDNA, BSA, 30 min RT; conditions: tags: R&D Systems, carrier free; label: 5'-32P
From the text: as §1

[8] = target: T1, IL-23 (human, p19/p40 heterodimer); experiment: filter; no binding in dot blot, but active in TransAM cell assay (p381); conditions: tags: R&D Systems, carrier free; label: 5'-32P
[9] = target: IL-12 (human, p35/p40 heterodimer) (Homo sapiens, UniProt P29459;P29460 SEQ:57-253,SEQ:23-328); experiment: filter; no binding detectable; conditions: label: 32P
Sequence of IL-12 (human, p35/p40 heterodimer) (P29459 23-219, chain 1 of 2): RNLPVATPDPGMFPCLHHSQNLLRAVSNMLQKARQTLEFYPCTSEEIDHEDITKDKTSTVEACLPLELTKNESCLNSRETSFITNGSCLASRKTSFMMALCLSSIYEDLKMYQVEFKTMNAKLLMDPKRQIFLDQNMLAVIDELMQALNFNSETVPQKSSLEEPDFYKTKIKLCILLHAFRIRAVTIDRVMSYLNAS
Sequence of IL-12 (human, p35/p40 heterodimer) (P29460 23-328, chain 2 of 2): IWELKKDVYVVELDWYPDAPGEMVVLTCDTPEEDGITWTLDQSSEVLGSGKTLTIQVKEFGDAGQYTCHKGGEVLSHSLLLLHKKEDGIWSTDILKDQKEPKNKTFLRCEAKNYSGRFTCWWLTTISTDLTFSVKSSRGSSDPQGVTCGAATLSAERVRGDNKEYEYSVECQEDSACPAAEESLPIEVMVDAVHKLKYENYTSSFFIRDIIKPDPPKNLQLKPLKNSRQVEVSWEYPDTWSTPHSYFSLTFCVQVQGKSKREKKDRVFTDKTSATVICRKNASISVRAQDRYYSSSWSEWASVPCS

[10] = target: T1, IL-23 (human, p19/p40 heterodimer); experiment: filter; no binding detectable; conditions: tags: R&D Systems, carrier free; label: 32P
[11] = target: T1, IL-23 (human, p19/p40 heterodimer); experiment: filter; direct binding without tRNA; conditions: tags: R&D Systems, carrier free; label: 5'-32P
Method: (§5) These molecules were gel purified and assayed for IL-23 binding using the dot blot assay as described above and compared to each other and to the parent molecule, ARC979. An 8 point IL-23 titration (0 nM to 300 nM, 3 fold serial dilutions) was used in the binding assay.

[12] = target: T1, IL-23 (human, p19/p40 heterodimer); experiment: filter; -tRNA; competition 6 nM; conditions: tags: R&D Systems, carrier free
Method: as §5

[13] = target: T1, IL-23 (human, p19/p40 heterodimer); experiment: filter; direct binding without tRNA; competition Kd 5 nM; conditions: tags: R&D Systems, carrier free; label: 5'-32P
Method: as §5

[14] = target: T1, IL-23 (human, p19/p40 heterodimer); experiment: competition; 1X PBS, 0.1 mg/mL BSA; direct Kd 93 nM with tRNA, 90 nM without; conditions: tags: R&D Systems, carrier free; label: 5'-32P; G4
Method: as §3, §4

[15] = target: T2, IL-23 (mouse, p19/p40 heterodimer); experiment: filter; 1X PBS, 0.1 mg/mL BSA, 30 min RT; inactive in TransAM cell assay; conditions: tags: isolated in-house; label: 32P
From the text: as §2

T1 sequence (Q9NPF7 20-189, chain 1 of 2): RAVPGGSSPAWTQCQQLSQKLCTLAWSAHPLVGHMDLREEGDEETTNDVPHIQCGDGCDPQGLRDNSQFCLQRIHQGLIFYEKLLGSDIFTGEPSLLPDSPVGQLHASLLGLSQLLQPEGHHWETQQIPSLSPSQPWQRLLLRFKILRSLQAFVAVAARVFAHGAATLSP
T1 sequence (P29460 23-328, chain 2 of 2): as the sequence (P29460 23-328, chain 2 of 2) above

GCGCCGGUGGGCGGGCACCGGGUGGAUGCGCC (mixed, 2'-deoxy A and G, 2'-OMe C and U (dRmY)) [ARC528]
binding result [1]: no binding

B1: A10.min6 (ssRNA)
RNA: GGAGUACGCCGAAAGGCGCUCUGAGUACUCAGCGUCCGUAAGGGAUACUCC
modifications: 2'-F C,U
IC50 [2]: 250 nM | Kd [3]: 48.3 nM

GGGCACUCAGCCACAGCUCGGUGGCUUAAUAUCUAUGUGAACGUGCCC (ssRNA, 2'-F all C and U (rRfY)) [ARC1633 minimer]
Kd [4]: 25 nM

ACAGCGCCGGUGUUUUCAUUGGGUGGAUGCGCUGU (mixed, 2'-deoxy A and G, 2'-OMe C and U (dRmY)) [ARC529]
binding result [1]: no binding

GGGCACUCAGCCACAGGUGGCUUAAUACUGUAAAGACGUGCCC (ssRNA, 2'-F all C and U (rRfY)) [ARC1739 (ARC1628 minimer)]
Kd [4]: 1 nM

GGGUACGCCGAAAGGCGCUUCCGAAAGGACGUCCGUAAGGGAUACCC (ssRNA, 2'-F C,U) [Type 1.4]
IC50 [2]: 80 nM | Kd [3]: 185 nM

GGCAAGGUAAUUGGGUAGUGAGGGCUGGG (mixed, 2'-deoxy A and G, 2'-OMe C and U (dRmY)) [ARC895]
binding result [5]: no binding

CGAUAUAGGCGGUACGGGGGGAGUGGGCUGGGGUCG (mixed, 2'-deoxy A and G, 2'-OMe C and U (dRmY)) [ARC795]
Kd [6]: 4 nM

ACAGCGCCGGUGGGCGGGCAUUGGGUGGAUGCGCUGU (mixed, 2'-deoxy A and G, 2'-OMe C and U (dRmY)) [ARC527]
Kd [7]: 12.6 nM

GGCGGUUACGGGGGAUGCGGGUGGGACAGG (mixed, 2'-deoxy A and G, 2'-OMe C and U (dRmY)) [ARC982]
binding result [8]: no binding

GGGCACUCAGCCACCUUGGGCUUAAUACCUAUCGGAUGUGCCC (ssRNA, 2'-F all C and U (rRfY)) [ARC1634 minimer]
Kd [4]: 19 nM

B2: ARC492 (mixed)
RNA: GGGAGAGGAGAGAACGUUCUACUCAAUGACCGCGCGAGGCUCUGGGAGAGGGCGCUGUCGAUCGAUCGAUCGAUG
modifications: 2'-deoxy A and G, 2'-OMe C and U (dRmY)
binding result [9]: no binding | binding result [10]: no binding

GGAGUACACAAGAAGUGCUUCCGAAAGGACGUCGAAUAGAUACUCC (ssRNA, 2'-F C,U) [B10.min5]
IC50 [2]: 80 nM | Kd [3]: 277 nM

ACAGGCAAGUAAUUGGGGAGUGCGGGCGGGGUGU (mixed, dRmY; PS between nt 9 and 10) [ARC1154]
Kd [11]: 412 nM

B3: ARC1162 (mixed)
RNA: ACAGGCAAGUAAUUGGGGAGUGCGGGCGGGGUGU
modifications: deoxy A,G; 2'-OMe C,U; PS 20-21 [PS between 20-21; 2'-OMe C,U at 2,6,10,13,14,21,23,27,32,34; deoxy A,G at all other positions]
Kd [12]: 47 nM

B4: ARC1160 (mixed)
RNA: B3 RNA
modifications: dRmY; PS between nt 18 and 19 [N = PS linkage, not a base; PS between nt 18 and 19; 2'-deoxy all A/G; 2'-OMe all C/U (2,6,10,13,14,21,23,27,32,34)]
Kd [13]: 38 nM

B5: ARC1161 (mixed)
RNA: B3 RNA
modifications: deoxy A,G; 2'-OMe C,U; PS 19-20 [PS between 19-20; 2'-OMe C,U at 2,6,10,13,14,21,23,27,32,34; deoxy A,G at all other positions]
Kd [12]: 55 nM

ACAGGCAAGUAAUUGGGGAGUGCGGGCGGGGUGU (mixed, 2'-deoxy A and G, 2'-OMe C and U (dRmY)) [ARC979]
Kd [14]: 9 nM

GGAGCGCACUCAGCCACCGGCUUAAUAUCCAAUAGGAACGUUCGCUCU (ssRNA, 2'-F all C and U (rRfY)) [ARC1918 (ARC1632 minimer)]
Kd [15]: 1 nM
